Measurements taken from publication PMC4357434.

B1: Caveolin-1-EGFP (natural protein)
chain: MSGGKYVDSEGHLYTVPIREQGNIYKPNNKAMAEEMSEKQVYDAHTKEIDLVNRDPKHLNDDVVKIDFEDVIAEPEGTHSFDGIWKASFTTFTVTKYWFYRLLSALFGIPMALIWGIYFAILSFLHIWAVVPCIKSFLIEIQCISRVYSIYVHTFCDPFFEAVGKIFSNIRINMQKET
B2: Caveolin-1-YFP (natural protein)
chain: B1 chain

Tests used:
[1] = target: RFP-tubulin (TagRFP-labeled α-tubulin) (UniProt P68363); experiment: FRET or BRET; FRET-iMSD (spatiotemporal image correlation of the FRET signal), TIRF time series at 10 ms resolution, about 60 s, live co-transfected CHO cells, basal condition; characteristic time of binding τb from the fit of G(0,τ)
Sequence of UniProt P68363 (P68363 whole entry, the tested form may be a part): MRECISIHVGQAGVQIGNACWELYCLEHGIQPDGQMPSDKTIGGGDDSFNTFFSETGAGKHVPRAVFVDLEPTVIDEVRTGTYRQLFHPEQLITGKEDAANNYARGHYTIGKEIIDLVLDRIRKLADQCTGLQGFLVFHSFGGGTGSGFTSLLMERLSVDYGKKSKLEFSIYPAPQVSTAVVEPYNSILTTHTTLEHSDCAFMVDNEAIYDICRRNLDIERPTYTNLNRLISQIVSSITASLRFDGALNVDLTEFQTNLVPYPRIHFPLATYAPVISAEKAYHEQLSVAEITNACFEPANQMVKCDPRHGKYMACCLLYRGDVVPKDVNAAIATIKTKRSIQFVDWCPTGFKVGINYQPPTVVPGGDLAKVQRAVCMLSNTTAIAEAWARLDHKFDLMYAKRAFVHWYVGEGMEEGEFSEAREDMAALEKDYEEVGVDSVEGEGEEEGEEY

[2] = target: TRPV1-RFP (Transient Receptor Potential Vanilloid 1 fused at its C-terminus to TagRFP) (UniProt O35433); experiment: as above
Sequence of UniProt O35433 (O35433 whole entry, the tested form may be a part): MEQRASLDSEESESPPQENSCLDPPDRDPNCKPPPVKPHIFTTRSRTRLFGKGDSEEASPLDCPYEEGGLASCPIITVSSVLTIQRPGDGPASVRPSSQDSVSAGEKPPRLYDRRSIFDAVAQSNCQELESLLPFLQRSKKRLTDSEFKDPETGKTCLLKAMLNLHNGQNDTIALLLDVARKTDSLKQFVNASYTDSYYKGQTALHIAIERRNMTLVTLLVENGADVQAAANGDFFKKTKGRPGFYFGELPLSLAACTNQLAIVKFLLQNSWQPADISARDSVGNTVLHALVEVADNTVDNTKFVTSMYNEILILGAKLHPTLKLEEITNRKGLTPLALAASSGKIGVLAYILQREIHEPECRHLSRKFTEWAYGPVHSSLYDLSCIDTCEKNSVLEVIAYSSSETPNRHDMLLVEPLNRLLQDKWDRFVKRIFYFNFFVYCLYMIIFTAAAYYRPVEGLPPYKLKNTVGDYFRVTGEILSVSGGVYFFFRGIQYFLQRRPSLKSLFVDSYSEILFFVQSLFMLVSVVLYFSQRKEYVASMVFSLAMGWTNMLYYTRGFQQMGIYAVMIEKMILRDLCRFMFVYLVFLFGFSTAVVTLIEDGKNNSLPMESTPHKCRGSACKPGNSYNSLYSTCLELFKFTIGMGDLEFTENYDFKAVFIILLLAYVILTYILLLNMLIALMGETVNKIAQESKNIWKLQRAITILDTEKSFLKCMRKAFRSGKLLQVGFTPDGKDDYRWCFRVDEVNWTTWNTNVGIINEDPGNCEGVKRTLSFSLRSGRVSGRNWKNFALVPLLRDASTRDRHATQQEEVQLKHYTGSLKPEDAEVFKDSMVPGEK

[3] = target: TRPV1-RFP (Transient Receptor Potential Vanilloid 1 fused at its C-terminus to TagRFP) (UniProt O35433); experiment: FRET or BRET; sensitized emission FRET (SE-FRET) imaged in TIRF mode on the membrane of live CHO K1 cells co-transfected with donor- and acceptor-fused proteins; bleed-through corrected; donor-normalised apparent FRET efficiency E D; 37°C
[4] = target: TRPV1-RFP (Transient Receptor Potential Vanilloid 1 fused at its C-terminus to TagRFP) (UniProt O35433); experiment: FRET or BRET; acceptor photobleaching FRET in TIRF mode on live co-transfected CHO cells; acceptor bleached at 561 nm; apparent FRET percentage E pb after Stepensky

Molecule | τb (characteristic time of binding) [1] | τb (characteristic time of binding) [2] | apparent FRET efficiency E D [3] | apparent FRET percentage E pb (acceptor photobleaching) [4]
TRPV1-EGFP (from UniProt O35433 1-838) (receptor) | > 60 s |  |  | 
B1 |  | 16.4 s | 4% | 11%
B2 |  |  | 30% | 
